Assay: soluble on expression in E. coli; label from the status in PepcDB or PDB records

Soluble on expression in E. coli, soluble:
MSAMNARQGILSLALKDKPALYSAYMPFVKGGGIFVPTPKRYMLGDEVFLLLTLPDSSERLPVAGKVIWTTPAGAQGNRAAGIGVQFPDGPEGEAVRNKIETLLAGLTTSDKPTHTM, MARFSSVLIYDGECPYCSVAAKALEQVDDIGAISWYDESAQSFLTAQFDEPPFAMVLVDRPAQQVYAGRAAAEELAGRAGLPDLVGSLVRDNYEKIAHVVGLASGRGREPDDVHERYVLADDAQDRFDTLAKDAVDRDIRADALEHHHHHH, MGHHHHHHSHMTWKGGGGWMAAVTHGPGITWGSLLPSAVRQGEQKCKNTDVYFSKLGGGGVPPDSFQRADCGGPTVYPTPARESLSFGTPGFPELRGKLILHVSIAVVVFLFGPGRAGEGPSRLQEASRVSWTLLCRPQAALQTPVRWDDFRRSQPGTARPSAWEPVQGAVS, MNRTDELRTARIESLVTPAELALRYPVTPGVATHVTDSRRRIEKILNGEDKRLLVIIGPCSIHDLTAAMEYATRLQSLRNQYQSRLEIVMRTYFEKPRTVVGWKGLISDPDLNGSYRVNHGLELARKLLLQVNELGVPTATEFLDMVTGQFIADLISWGAIGARTTESQIHREMASALSCPVGFKNGTDGNTRIAVDAIRAARASHMFLSPDKNGQMTIYQTSGNPYGHIIMRGGKKPNYHADDIAAACDTLHEFDLPEHLVVDFSHGNCQKQHRRQLEVCEDICQQIRNGSTAIAGIMAESFLREGTQKIVGSQPLTYGQSITDPCLGWEDTERLVEKLASAVDTRF, MSQSDEASVAEPTVVVATPVAVAVTAPATHPRKPPALVISTIACPTIYEQAPSKPASPTMPLSPYEGITADLMQRIQLFSSQFDHARLSPNYATSDLGSSARSSFSSTTSSFLTYRDRSVDFDEAGKELISPFDCDTNCSGTPYSLSTNSGNHFSFEARSVSSLGHSTAHFNQLLAAGAAYELSRERSRSESDMQPTQEDDVRHLNTSTISVPIYAKKPLHKFGGEIKRSSSTPPPTSDEREQVEQRLLLRPSSGMEIKKDLETTNSFVSSWAREQIFAMQNATMYNLLTARSAEDCSTISTPGPLKVFPRSKDDMTFAPRDDSSRAKQMQYPCTLCGQAFAVHDRLAKHIASRHRQRSCTLDDASKVHKCNMCSKSFSRSDMLTRHMRLHTGAKPYSCPTCNQVFSRSDHLSTHLRTHTGEKPYACPMCNYSASRRDMISRHMRTHSLTDDSSISTPISQLSIRSATTSPLPPKIGSTATVEIGSGLLSAFKPILSASSSNLLSVSSPFQSLSLSTPPSPSFAPIVLNRQLSFDVTMRNTTS, MAQISGNQTGIGSIHPLLHQNTSDFSEQKFSSVFTGDEFFLRDHVVRGKPVLPGVAYLEMAYAAINQAAGSEIGQDVRIRLNHTVWVQPVVVDRHSAQVDISLFPEEDGKITFDIYSTQEDGDDPVIHSQGSAELASAAETPVADLTEMSRRCGKGKMSPDQFYEEGRSRGMFHGPAFQGIKNVNIGNREVLAQLQLPEIVSGTNEQFVLHPSIMDSALQTATICIMQELTDQKLILPFALEELEVIKGCSSSMWAYARLSDSDHSGGVVQKADIDVIDESGTVCVRIKGFSTRVLEHHHHHH, MINNSFWQGKRVFVTGHTGFKGGWLSLWLQTMGATVKGYSLTAPTVPSLFETARVADGMQSEIGDIRDQNKLLESIREFQPEIVFHMAAQPLVRLSYSEPVETYSTNVMGTVYLLEAIRHVGGVKAVVNITSDKCYDNKEWIWGYRENEAMGGYDPYSNSKGCAELVTSSYRNSFFNPANYGQHGTAVATVRAGNVIGGGDWALDRIVPDILRAFEQSQPVIIRNPHAIRPWQHVLEPLSGYLLLAQKLYTDGAEYAEGWNFGPNDADATPVKNIVEQMVKYWGEGASWQLDGNAHPHEAHYLKLDCSKAKMQLGWHPRWNLNTTLEYIVGWHKNWLSGTDMHEYSITEINNYMNTK

Soluble on expression in E. coli, not soluble:
ELDWFARRGLKEPNLAELLDLVALGSVADVVPLDANNRILVHQGLARIRAGRARPGLRALLEVAGRPPVRITSTDLGFILGPRLNAAGRLDDMSLGIECLLCDDEALARDMAVQLDQLNQDRKAIEQGMQREALAQLKELSLEQLPFGLCLFDADWHQGVIGILASRLKERYHRPTIAFADAGDGSLKGSARSIPGFHIRDALDAVAARHPGLISKFGGHAMAAGLSLPQENFGAFSAAFDAEVRRQLAEEDLAGRLLSDGQLSIQEFHLELARALRQAGPWGQHFPEPMFHGVFQLVQQRIVGERHLKLVLKSECGSLQLDGIAFNIDREQWPNPTVRWAELAYKLDVNEFRGQESVQL, MSLIIRKLFEFENAHIVRFCSSKRCKSSIHGHSYKVEVLLESKYLDNAGMVYDFGLLKTYIRQIIDSFDHAITLFKYDDAKYLEEMKKYSSRWICLPVNVSAENFCRVFFILIDALLKQTKMVNGEQGVTLQSIIVHETRTGYAQGFREDAEGHHHHHH, MKSMTGFGKKTIQNENYQLDIEVKSVNQRFLDIQLRMPKELNAYELVIRQVIKRTLKRGRVEVYVNLQKIGNNQKEVRVQWDLIDQLLTSVDQHLKEKYPEATFDAGDTVNHLLKQNDFVEIVEAEIVDQTFEPFLVQAFEAAIASLDQSRVQEGTQIKQVLLDYVAVLTQSIQELQAFVGVFEQEYRQRFEAKLNEWLGSQVDETRLLTEMAILLEKGDIHEELDRLDIHIDKLHQLLDETEPVGRELDFLIQEMNREVNTIGSKSSPIEIKNSVVQMKTTLEKIREQIQNVE, MIKKWLSVALISTAAMMPHTTFASDTLLQKAQQENRQQQTHNASRESGFKKTEQELQAIKNKLVAERAALQAEADTLSVTFSENEAELAQLEEKLRLETGSLGELFGVVRQNAKELESELKHAVTGVDANSYQKDIEAIVAAKSLPTLKQLQAMWRSMEEQVTASGELAKVSFTLLDGEGKEQTVNGVRLGAMALLDDNGYVKWNGQRGDAVNYLRQPENGPTASAFTNGELDSLVIDPSRGILLEQLANSPTLKDRLNAGGVVGQ, DYIVEKLNMTKMYDIFSQYLPPQVFINDDSVVHLVRNSIYYKKMRGKHDLVILAGDFQGTTQEAQYELSYQVLQIAKEIGVSMIYTLGGYSIGKIVDKPRVLGAVTDKNLVADLEKNGVVFPKGE, MGSDKIHHHHHHMTPAQLKDELIAYSKTIGIDKIGFASADPFLTLKERLQTQQALGYQSGFEEPDIDKRVYPEKILPKARSIISIALAYPSKMKNPPKSKKGERRGVFCRASWGKDYHDILRDRLKKLEDFLLERVPDMKVLSMVDTGALSDRAVAERAGIGWSGKNCGVITPEFGSYVYLGDLVTTIPFPPDIPLTDQCGTCNKCVDACPTGALIQGGQLDSQKCIAFLTQTKGFLPEKYRKKLGNRLYGCDTCQQVCPANKGKNFHFHEEMEPDPEIAKPKLIPLLTMSNREFKEKFGHVSGSWRGKKPIQRNAILALAHFKEEAALPILADLLRQDPRPVIRGTAGWALGKIGGPEVETWLKDALKREKDEDVRAEISRGLEILAYGDSGNGKETEDSIR, MPEGPAAVLAPRRKTRQLQVGTVGVGSDFPVSVQSMCTTKTHDVNATLQQIAELTASGCDIVRVACPRQEDADALATIAKKSQIPVIADIHFQPRYIFAAIEAGCAAVRVNPGNIKEFDGRVKEVAKAAGDAGIPIRIGVNAGSLDPRLMQKYGKATPEALVESALWEAGLFEEHGFGDIKISVKHNDPVIMVEAYRQLAAQCNYPLHLGVTEAGPAFQGTIKSAVAFGALLADGIGDTIRVSLSAPPAEEIKVGTQILQSLNLRPRKLEIVSCPSCGRAQVDVYTLADEVTAGLEGMEIPLRVAVMGCVVNGPGEAREADLGVASGNGKGQIFVKGKVIKTVPEAQIVETLIEEAMRIAEEMEGDATSGSPVVTVS, SKLPKGTRSSVYFAQHPEKEPLPSRQEVKQTPVIMAKIKGPGPAKYLRPSCTGYIDHDISMFKAPAYTLHSRHSEKRMVCHSSPGPCYLLDPKITRFGMSSCPQVPMEERISNLRLNPTLASCQYYFEKIHPPGERRAPQYTFGYRRPYRVMDLNPAPNQYQMPLLLGPNTPVSRAAPCYSLASRDKNWFYKEDVAGGPGPTTYARPEPSIYQNRSPTYSMAKRFAYPLDLTPRPGPGSHEVQQVTVHKPHIPAFTMGIKHSLHLCPLVIDIRD, MSRKTLVDTPITPQSSIGHILRAQFALQNQLPEDKPKTIGFNEAENMKLYELYSGRREEYHSTRPSGQRNEEVPMDTLAREWATEITSMGFAERTPAQIKQRIRDMRKFSRKHAHKLGITNMNAGQELERYAEFSWAEPKRRSRGPVPDWMSGLAEIMMSEQDTKADDADSASDIMEATYGPKAKRLKLQRTEMQLHQLQLHLDMKQRELKQEREKEEGNGNDEQEEREKRDVSPETLLIEKKLRLADAKLHTEHLKQQVSIP, MGSDKIHHHHHHETLRAFQRKAYESTEKTNCVCFFIQEALEIAENLEHLATDPNYQKPPLFGVPVSIKESIHVKNLDSTAGYAQKINNPSDANSVSVDQLIRLGAVPFVHTNIPIALLSYGCSNGVYGTTLNPLDNSRVPGGSSGGEAALVSLGGSVLGIGTDVGGSIRTPASFCGLAGFKSSSDRSPQLGKTASIPGRQLLLSVEGPIAKNIDVCVEYLRLKWNDPLLYKKDVYMPPVKFQENLYNSEKPLKIGYYTFDGYQTASPAYQRAVRETVAVLKELGHELVPFEVPQPDHMYSIFCAGATADGGLYLMDSLANDIIPPEADIGFPVAKLPHFIQRLLRKYWHHRRERQIIQELPHDTEEMRQMHEKIEDYRHEFVLAMRAKKLDALVCPAFGCPPPHHGMPNKILGANSYPALYNLIDFAAGTVPVTVQKQEDEVELRKMKTEDSWDRRVVTESKNCIGLPVSVQIATPPYREEMCLRLLKQVEAKIGLYSRTH, MGSDKIHHHHHHMIRGLRQIEPYVAGVQPAERKMIKLNTNENAYGASPKVREALANFDVDNLRKYSTLEQADLRAALANNLKVKPEQLMIANGSDDVLSIAFLAFFNNDEPVLFPDLTYGFYKVWADLYRVNYHEIPLAEDFTINTEDYLADNGGIILTNPNAPTGIYKPLNEIEKLLKANQDTVVIIDEAYISFGGQSALSLLNKYNNLVITRTFSKDAALAGLRVGYAIANEPLIAVMNAVKHSINPYSVDLLAERLATAAVEDWSYYQENAKKIQKTRAWFSEQLVKQGFDVLPSQANFVLTKPHDLATAKLFEELEARKIYVRYFPKVERIKDYLRISMGTQEEMEEVVKAIEEIRG, MISAGIDPGTGSYDVVAIEDGKVVFRKNIPTEEVRASPDVIVEVIEESGAEVAAGLSGYGLPVKRFSELDEVDLLLMTLNFDSERAIGLRNIIKAVKERNVNLYTVPAVIHLPTVPPWRKMNRIDIGTADKLCSAVLAVAKLSEEEELTKLNFILAEVGEGFNAFIAVRNGRIVDGMGGTTSFPGYSSLGAMDAELAYIIGEFPKKLIFSGGVKSFASEWKVNENEVTNILSEFVLKGIRAMEVSTDADFYMLSGRFAPDVLRKLRGEGKEVRLLGGFGRGKQSAQGAAIIANAIAGGEYREIVDYMRIFEAKGTLLDYITSDIMEYVRRGLKRRGD, MGSDKIHHHHHHADILSCTVDGDILKAEPEIDNESVTLTVKSDADITNLAPVFTLTPGATITPASGSAFDFTTPRTYTVTSEDGHWTKTYTVRCIVSGVSTEYHFEHITMEPKNGRYQIFYDFTSNGDSVTWASGNAGFALTNNKLEPLDFPTMQDDNGYVGKCAKLVTRSTGSFGSGFGMPIAAGNLFIGTFDLLNAIPDARKGTRLGRPFDHVPTYLSGYYKYKAGESYKVNGEEVKGKKDQCDIYAIFYETDENVKYLDGFNGLTSPNLISVARISDQKETDEWTRFYIPFVAKPGKVIDKDKLAKGGYQLSIVFSSSLKGDVFEGAEGSTLWIDEVEIIQSGEN
